Experimental data as given in US20220153839A1 (NBE THERAPEUTICS, published 2022).
Where a chain is given by its changes, count along the chain named.

Tests used:
[1] = target: T1, hFc-mROR1 (extracellular domain of mouse ROR1 fused to the Fc domain of human IgG1) (human; mouse, UniProt Q9Z139 30-406); assay: ELISA; hFc fusion captured by coated anti-human IgG1 Fc; Fab 100 ng/50 µL; anti-His-HRP; A405
T1 construct: extracellular domain; not shown: Fc domain of human IgG1
Method: (§1) The binding of each chimeric rabbit/human Fab to hROR1 and mROR1 fused with human IgG1 Fc (hFc-hROR1 and hFc-mROR1) was analyzed by ELISA. hFc-ROR1 or hFc-mROR1 were captured by anti-human IgG1 Fc antibody immobilized on plate and then incubated with hROR1 specific Fabs comprising a His-tag via detection with mouse anti-His tag.
ELISA: For ELISA (FIG. 2), each well of a 96-well Costar 3690 plate (Corning, Corning, N.Y.) was coated with 100 ng anti-human IgG1 Fc in 25 μL coating buffer (0.1 M Na₂CO₃, 0.1 M NaHCO₃, pH 9.6) for 1 h at 37° C. After blocking with 150 μL 3% (w/v) BSA/TBS for 1 h at 37° C., hFc-hROR1 or hFc-mROR1 was captured following incubation at 100 ng/50 μL for 1 h at 37° C. Then 100 ng/50 μL of Fab was applied in each well at 37° C. 2 h later, 50 μL of a 1:1000 dilution of a mouse anti-His tag mAb conjugated to horse radish peroxidase (HRP) (R&D Systems, Minneapolis, Minn.) in 1% (w/v) BSA/TBS was used to detect the Fab. To determine the epitopes (FIG. 4), hFc fusion proteins containing different domains of hROR1 were coated directly, followed by incubation with Fab before detection by mouse anti-His tag mAb conjugated to HRP. […] The absorbance was measured at 405 nm using a SpectraMax M5 microplate reader (Molecular Devices; Sunnyvale, Calif.) and SoftMax Pro software (Molecular Devices).

[2] = target: T2, hFc-hROR2 (extracellular domain of human ROR2 fused to the Fc domain of human IgG1) (human, UniProt Q01974 34-403); assay: ELISA as for hFc-hROR1; third bar series, keyed 'hFc-hROR1' a second time on the sheet, taken as hFc-hROR2 by legend paragraph 27
T2 construct: extracellular domain; not shown: Fc domain of human IgG1
Method: as §1
(§2) ELISA: For ELISA (FIG. 2), each well of a 96-well Costar 3690 plate (Corning, Corning, N.Y.) was coated with 100 ng anti-human IgG1 Fc in 25 μL coating buffer (0.1 M Na₂CO₃, 0.1 M NaHCO₃, pH 9.6) for 1 h at 37° C. After blocking with 150 μL 3% (w/v) BSA/TBS for 1 h at 37° C., hFc-hROR1 or hFc-mROR1 was captured following incubation at 100 ng/50 μL for 1 h at 37° C. Then 100 ng/50 μL of Fab was applied in each well at 37° C. 2 h later, 50 μL of a 1:1000 dilution of a mouse anti-His tag mAb conjugated to horse radish peroxidase (HRP) (R&D Systems, Minneapolis, Minn.) in 1% (w/v) BSA/TBS was used to detect the Fab. To determine the epitopes (FIG. 4), hFc fusion proteins containing different domains of hROR1 were coated directly, followed by incubation with Fab before detection by mouse anti-His tag mAb conjugated to HRP. Washing with PBS was repeated and colorimetric detection was performed using 2,2′-azino-bis(3-ethylbenzthiazoline)-6-sulfonic acid (Roche) as substrate according to the manufacturer's directions. The absorbance was measured at 405 nm using a SpectraMax M5 microplate reader (Molecular Devices; Sunnyvale, Calif.) and SoftMax Pro software (Molecular Devices).

[3] = target: T3, hFc-hROR1 (extracellular domain of human ROR1 fused to the Fc domain of human IgG1) (human, UniProt Q01973 30-406); assay: SPR (Biacore X100); hFc-hROR1 captured by anti-human Fcγ antibody on CM5; Fab as analyte; 1:1 Langmuir fit
T3 construct: extracellular domain; also called hFc-ROR1; not shown: Fc domain of human IgG1
Method: (A) Shown are Biacore X100 sensorgrams obtained for the binding of each Fab to hFc-hROR1 captured by anti-human Fcγ antibody immobilized on CM5 chip after instantaneous background depletion. Fabs were injected at five different concentrations with the highest concentration indicated in table (B), one of the five concentrations was tested in duplicates. The equilibrium dissociation constant (Kd) was calculated from koff/kₒₙ (kₒₙ, association rate constant; koff, dissociation rate constant).
Surface plasmon resonance: Surface plasmon resonance for the measurement of the affinities of all Fabs to hFc-hROR1 and for epitope mapping studies were performed on a Biacore X100 instrument using Biacore reagents and software (GE Healthcare, Piscataway, N.J.). Anti-Human IgG (Fc) antibody was immobilized on a CM5 sensor chip following the instruction of Human Antibody Capture Kit (GE Healthcare, Piscataway, N.J.). The sensor chip included an empty flow cell for instantaneous background depletion. All binding assays used 1×HBS-EP+ running buffer (10 mM HEPES, 150 mM NaCl, 3 mM EDTA (pH 7.4), and 0.05% (v/v) Surfactant P20) and a flow rate of […]. […] The sensor chip was regenerated with […] from the Human Antibody Capture Kit without any loss of binding capacity. Calculation of association (kₒₙ) and dissociation (koff) rate constants was based on a 1:1 Langmuir binding model. The equilibrium dissociation constant (Kd) was calculated from koff/kₒₙ. For epitope mapping studies, each Fab was prepared at 500 nM alone in 1×HBS-EP+ running buffer and then injected in order as indicated in FIG. 5.

Kr = target: T4, Kr (human, UniProt Q01973); assay: ELISA on directly coated hFc fusion proteins of hROR1 domains; anti-His-HRP; A405
T4 construct: Kringle domain of the extracellular domain; also called hFc-hROR1-Kr
Method: as §2

Fr + Ki = target: T5, Fr + Ki (human, UniProt Q01973); assay: as above
T5 construct: Frizzled and Kringle domains of the extracellular domain; also called hFc-hROR1-Fr-Ki
Method: as §2

Fr = target: T6, Fr; assay: as above
T6 construct: also called hFc-hROR1-Fr
Method: as §2

Ig = target: T7, Ig (human, UniProt Q01973); assay: as above
T7 construct: Ig domain of the extracellular domain; also called hFc-hROR1-Ig
Method: as §2

hROR2 [4] = target: T8, hROR2 (human, UniProt Q01974); assay: flow cytometry on 63-12 / hROR2 cells; anti-His Alexa Fluor 488
T8 construct: full length, on the cell surface; also called 63-12 / hROR2; ROR2 on T47D cells
Method: (§3) Flow cytometry: Cells were stained using standard flow cytometry methodology. Briefly, for purified anti-ROR1 Fab (FIG. 3), 0.1-1×10⁶ cells were stained with 1000 ng/100 μL of Fab on ice for 1 h. After washing twice with ice-cold flow cytometry buffer (PBS containing 1% (v/v) BSA, 0.1% sodium azide and 1 mM EDTA), the cells were incubated with a 1:1000 dilution of a mouse anti-His tag mAb conjugated to Alexa Fluor 488 (Qiagen) in 100 μL flow cytometry buffer on ice for 30 min. For purified anti-ROR1 IgG1 (FIG. 8), 0.1-1×10⁶ cells were blocked by 4% goat serum for 15 min at room temperature and then incubated with 100 ng/100 μL of IgG on ice for 1 h. After washing twice with ice-cold flow cytometry buffer, cells were stained with a 1:500 dilution of goat anti-human IgG, Fcγ pAbs conjugated to APC (Jackson ImmunoResearch) in 100 μL flow cytometry buffer on ice for 30 min. For commercial goat anti human ROR1 polyclonal antibody (FIG. 8), 0.1-1×10⁶ cells were stained with 200 ng/100 μL of Ab on ice for 1 h. […] Finally, 4′,6-diamidino-2-phenylindole (DAPI) was added to a final concentration of 100 ng/mL to exclude dead cells from the analysis. Cells were analyzed using a FACSCalibur instrument (BD Biosciences) and FlowJo analytical software (Tree Star, Ashland, Oreg.).

[5] = target: T9, StrepII-tagged human ROR1 extracellular domain (human, UniProt Q01973 30-406); assay: SPR (Biacore T200); mAb captured by goat anti-human Fcγ IgG on CM5; ROR1-strep as analyte (Example 8); second of two independent measurements; batch of the parental IgG not stated
T9 construct: extracellular domain; also called ROR1-strep; strep-tagged human ROR1
Method: (§4) Affinity screening was then performed to select the best binders. Affinities were determined using a Biacore T200 instrument (GE Healthcare, Buckinghamshire, UK) and data was evaluated using Biacore Evaluation T200 V2.0 software. To capture mAbs, goat α-human Fc-gamma-specific IgG (Jackson ImmunoResearch, #109-005-098) was covalently immobilized on a CM5 chip (GE Healthcare, #BR-1005-30).
Briefly, for capturing mAbs in HEK293T supernatants, the undiluted supernatants were captured with a flow of 30 μl/min for 120 s.

hROR2-ECD-HIS = target: T10, hROR2-ECD-HIS (human, UniProt Q01974); assay: Western blot of denatured, reduced samples; anti-human Fcγ-HRP
T10 construct: extracellular domain; also called hROR2-His; purified extracellular domain of hROR2
Text: The Western blots contained the following samples as indicated: Lane 1: K562 cells ectopically expressing full length of hROR1. Lane 2: untransfected K62 cells. Lane 3: purified extracellular domain of hROR1. Lane 4: purified extracellular domain of hROR2.
Western blotting: Cells or proteins were lysed by 1× sample buffer (containing 1% β-mercaptoethanol) and boiled before running on NuPAGE Novex 4-12% Bis-Tris gels (Invitrogen).

[6] = target: T9, StrepII-tagged human ROR1 extracellular …; assay: SPR (Biacore T200); mAb captured by goat anti-human Fcγ IgG on CM5; ROR1-strep as analyte (Example 8); first of two independent measurements; batch of the parental IgG not stated
Method: as §4

hROR2 [7] = target: T8, hROR2; assay: flow cytometry on T47D cells (ROR2 positive, ROR1 negative); APC goat anti-human Fcγ
Method: as §3

[8] = target: T11, human CD20 on HEK293 cells (cell microarray) (human, UniProt P11836 1-297); assay: cell microarray (Retrogenix): fixed HEK293 cells over-expressing the protein; AlexaFluor647 anti-human IgG Fc detection
T11 construct: whole, on cells; Expressed on fixed HEK293 cells of the Retrogenix microarray
T11 sequence (looked up): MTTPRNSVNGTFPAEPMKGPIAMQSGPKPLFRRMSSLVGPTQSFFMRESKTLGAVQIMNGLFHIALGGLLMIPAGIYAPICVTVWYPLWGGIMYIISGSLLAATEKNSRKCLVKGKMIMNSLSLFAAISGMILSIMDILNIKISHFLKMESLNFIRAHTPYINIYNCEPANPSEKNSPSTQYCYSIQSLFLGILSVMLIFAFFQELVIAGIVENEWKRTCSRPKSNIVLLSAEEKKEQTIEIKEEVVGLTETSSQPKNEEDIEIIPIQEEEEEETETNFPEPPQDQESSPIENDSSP
Method: (§5) ZsGreen1 signals on the left indicate the expression levels of the various human membrane proteins.
(§6) FIG. 28 provides an overview of the Retrogenix Cell Microarray Platform. […] An AlexaFluor647 anti-human IgG Fc detection antibody was used. Primary hits (duplicate spots) were identified by analyzing fluorescence (AlexaFluor647 and ZsGreen1) on ImageQuant. Vectors encoding all hits were sequenced to confirm their correct identities. […] Slides were analyzed as before (FIG. 29).

[9] = target: T12, human ROR2 on HEK293 cells (cell microarray) (human, UniProt Q01974 34-943); assay: as above
T12 construct: whole, on cells; Expressed on fixed HEK293 cells of the Retrogenix microarray
Method: as §5, §6

T9 sequence (Q01973 other isoform, or with tags, fused parts or gaps): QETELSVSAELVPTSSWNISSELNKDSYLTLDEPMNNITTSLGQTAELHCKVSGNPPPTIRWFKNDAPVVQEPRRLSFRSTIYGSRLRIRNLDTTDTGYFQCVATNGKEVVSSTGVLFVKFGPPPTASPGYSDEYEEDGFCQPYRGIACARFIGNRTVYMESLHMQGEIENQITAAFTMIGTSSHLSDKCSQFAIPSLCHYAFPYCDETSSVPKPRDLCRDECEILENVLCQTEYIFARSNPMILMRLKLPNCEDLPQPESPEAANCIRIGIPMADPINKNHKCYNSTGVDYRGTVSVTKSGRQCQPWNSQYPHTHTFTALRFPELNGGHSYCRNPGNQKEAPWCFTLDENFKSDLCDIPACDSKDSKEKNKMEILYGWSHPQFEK
T3 sequence (Q01973 30-406): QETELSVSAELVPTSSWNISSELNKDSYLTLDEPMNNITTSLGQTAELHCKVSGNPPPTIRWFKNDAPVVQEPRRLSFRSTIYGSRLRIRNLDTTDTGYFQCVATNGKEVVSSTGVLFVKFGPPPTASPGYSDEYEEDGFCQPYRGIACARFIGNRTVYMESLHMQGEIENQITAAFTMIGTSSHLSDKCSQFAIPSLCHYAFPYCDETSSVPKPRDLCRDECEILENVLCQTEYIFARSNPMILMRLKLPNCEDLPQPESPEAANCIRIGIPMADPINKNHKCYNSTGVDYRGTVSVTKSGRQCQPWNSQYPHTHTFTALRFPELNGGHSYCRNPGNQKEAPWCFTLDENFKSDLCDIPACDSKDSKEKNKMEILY
T8 sequence (Q01974 34-943 limits assumed): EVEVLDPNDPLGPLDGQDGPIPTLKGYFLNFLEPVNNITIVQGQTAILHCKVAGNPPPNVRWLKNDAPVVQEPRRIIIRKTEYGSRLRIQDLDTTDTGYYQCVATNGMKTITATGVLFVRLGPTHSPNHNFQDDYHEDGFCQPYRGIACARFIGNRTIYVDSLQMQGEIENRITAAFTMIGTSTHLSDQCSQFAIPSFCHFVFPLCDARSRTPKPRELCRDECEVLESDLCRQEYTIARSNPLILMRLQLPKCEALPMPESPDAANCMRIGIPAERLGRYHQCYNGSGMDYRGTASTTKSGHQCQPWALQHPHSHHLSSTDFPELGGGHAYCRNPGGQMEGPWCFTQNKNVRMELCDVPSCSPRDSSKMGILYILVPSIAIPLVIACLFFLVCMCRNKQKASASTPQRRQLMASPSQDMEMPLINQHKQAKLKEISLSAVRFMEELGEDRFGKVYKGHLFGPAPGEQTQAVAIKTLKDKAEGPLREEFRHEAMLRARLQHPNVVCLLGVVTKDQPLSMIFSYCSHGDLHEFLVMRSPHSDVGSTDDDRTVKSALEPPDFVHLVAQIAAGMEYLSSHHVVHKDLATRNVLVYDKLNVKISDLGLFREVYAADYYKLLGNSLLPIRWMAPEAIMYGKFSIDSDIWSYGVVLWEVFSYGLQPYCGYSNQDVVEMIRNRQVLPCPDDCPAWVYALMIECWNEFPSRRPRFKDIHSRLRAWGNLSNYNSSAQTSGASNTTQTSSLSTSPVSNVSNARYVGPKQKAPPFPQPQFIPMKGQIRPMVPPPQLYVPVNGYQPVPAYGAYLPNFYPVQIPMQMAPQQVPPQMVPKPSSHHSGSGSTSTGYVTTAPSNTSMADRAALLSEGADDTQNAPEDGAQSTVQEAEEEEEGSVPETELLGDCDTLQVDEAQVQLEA
T7 sequence (Q01973 42-147 limits assumed): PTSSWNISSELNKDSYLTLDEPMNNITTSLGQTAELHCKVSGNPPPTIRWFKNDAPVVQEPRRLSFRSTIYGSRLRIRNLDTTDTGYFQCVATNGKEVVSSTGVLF
T4 sequence (Q01973 312-391 limits assumed): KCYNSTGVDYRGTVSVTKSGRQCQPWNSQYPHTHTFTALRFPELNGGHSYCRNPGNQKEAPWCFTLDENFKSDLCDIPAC
T5 sequence (Q01973 165-391 limits assumed): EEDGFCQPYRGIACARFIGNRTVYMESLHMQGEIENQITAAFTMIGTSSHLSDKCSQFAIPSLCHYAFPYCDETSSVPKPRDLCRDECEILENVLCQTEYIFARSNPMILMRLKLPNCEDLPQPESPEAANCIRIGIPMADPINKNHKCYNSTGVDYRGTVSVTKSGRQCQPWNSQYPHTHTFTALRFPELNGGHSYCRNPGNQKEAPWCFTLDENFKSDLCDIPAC
T1 sequence (Q9Z139 30-406): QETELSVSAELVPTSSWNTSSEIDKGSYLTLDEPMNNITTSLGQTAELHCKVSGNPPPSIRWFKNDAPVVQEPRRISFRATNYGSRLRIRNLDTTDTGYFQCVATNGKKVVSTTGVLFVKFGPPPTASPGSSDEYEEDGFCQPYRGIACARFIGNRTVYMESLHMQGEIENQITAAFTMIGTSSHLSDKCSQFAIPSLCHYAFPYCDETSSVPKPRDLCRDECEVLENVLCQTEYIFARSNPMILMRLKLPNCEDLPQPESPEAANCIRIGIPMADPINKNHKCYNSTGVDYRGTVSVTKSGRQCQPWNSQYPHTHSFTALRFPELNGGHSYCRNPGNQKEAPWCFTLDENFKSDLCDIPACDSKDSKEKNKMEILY
T10 sequence (Q01974 34-403): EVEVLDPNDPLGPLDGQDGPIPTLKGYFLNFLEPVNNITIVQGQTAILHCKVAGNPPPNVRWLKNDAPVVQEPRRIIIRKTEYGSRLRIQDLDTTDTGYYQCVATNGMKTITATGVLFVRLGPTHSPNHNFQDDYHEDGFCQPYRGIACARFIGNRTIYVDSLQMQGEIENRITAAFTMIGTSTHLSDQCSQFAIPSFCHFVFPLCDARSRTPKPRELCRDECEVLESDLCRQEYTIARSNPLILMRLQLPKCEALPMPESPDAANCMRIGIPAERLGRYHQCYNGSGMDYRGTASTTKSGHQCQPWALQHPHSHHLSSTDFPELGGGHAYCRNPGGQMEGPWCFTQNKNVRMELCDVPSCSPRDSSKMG
T2 sequence (Q01974 34-403): as above
T6 sequence (chain, as listed by the source limits assumed): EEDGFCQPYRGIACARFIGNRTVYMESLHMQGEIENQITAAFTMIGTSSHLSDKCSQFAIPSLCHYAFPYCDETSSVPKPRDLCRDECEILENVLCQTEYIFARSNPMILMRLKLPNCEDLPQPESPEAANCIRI
T12 sequence (Q01974 34-943): as the sequence (Q01974 34-943 limits assumed) above

B1: ERR1-TOP22 chimeric rabbit/human Fab (Fab, V domains shown)
VH: QSLEESGGRLVTPGTPLTLTCTVSGFSLSSYYMSWVRQAPGKGLEWIGTISSSGSTYYASWVKGRFTISKTSTTVDLKMTSLTTEDTATYFCARDLDYDMDLWGPGTLVTVSS
VL: SYELTQLPSVSVSLGQTARITCGGNSIGSKAVHWYQQKPGLAPGLLIYNDDERPSGVPDRFSGSNSGDTATLTISGAQAGDEADYYCQLWDNNAAVFGGGTQLTVTG
notes: Chimeric rabbit/human Fab with His tag, expressed in E. coli (pET11a); lambda light chain
B1 was tested, and the binding result [1] was “binds”, the binding result [2] was “no binding (tested: 100 ng/50 µL)” and the Kd [3] was 110 nM. For the same binder, the koff [3] was 0.0813 s⁻¹, the kon [3] was 737000 M⁻¹ s⁻¹ and the binding result (Kr) was “no binding”. B1: no binding (Fr + Ki); no binding (Fr); no binding (Ig). B1: no binding (tested: 1000 ng/100 µL) (hROR2 [4]).

B2: XBR1-402 chimeric rabbit/human IgG1 (antibody, V domains shown)
VH: QEQQKESGGGLFKPTDTLTLTCTASGFDISSYYMSWVRQAPGNGLEWIGAIGISGNAYYASWAKSRSTITRNTNLNTVTLKMTSLTAADTATYFCARDHPTYGMDLWGPGTLVTVSS
VL: B1 VL with G23E, S26N, N49D, L89V, N92S, N93S, A95Y
notes: Rabbit variable domains on human IgG1 constant regions (vector PIGG), lambda light chain, from HEK 293F cells, Protein A purified
B2 was tested, and the Kd [5] was 5.1 nM, the koff [5] was 0.00556 s⁻¹ and the kon [5] was 1.1e+06 M⁻¹ s⁻¹. For the same binder, the binding result (hROR2-ECD-HIS) was “no binding (tested: 2 µg/mL)”, the Kd [6] was 5.1 nM and the koff [6] was 0.00591 s⁻¹. The kon [6] was 1.16e+06 M⁻¹ s⁻¹, the binding result (hROR2 [7]) was “no binding (tested: 100 ng/100 µL)” and the binding result [8] was “no binding (tested: 20 µg/mL)”. B2: no binding (tested: 20 µg/mL) [9].
